# Data reported in the RNAGym collection of RNA variant scans (doi:10.7554/elife.80360).
# B1: Hairpin Ribozyme (parent)
# chain: GUCCUCUUUCACGUGCGCGUGAAAGAGAGAAGUGAACCAGAGAAACACACGUUGUGGUAUAUUACCUGGUA
# Variants of: B1
# Experiment: self-cleavage, relative activity (ratio to wild type); higher = more cleavage; co-transcriptional
row,Variant,self-cleavage
1,C10A U20G,0.663
2,C10G A61C,0.255
3,C10G A61U,0.2
4,C10U G42U,0.269
5,C10U G42C,0.266
6,U9G A49U,0.163
7,U9G A49C,0.182
8,C10A G27A,0.35
9,C10A G27U,0.233
10,U9G C12G,0.53
11,U9G C12A,0.499
12,C10A C16U,0.762
13,C10U A24G,0.885
14,C10U A24C,0.613
15,C10U A24U,0.778
16,C10G A28G,0.954
17,C10G A28U,0.586
18,A11G A71U,0.749
19,A11G A71C,1.35
20,C10U G40A,0.308
21,A11C U70C,1.23
22,C10A A64U,0.121
23,C10A A26C,0.297
24,C10A A26U,0.461

row,Variant,self-cleavage
1,U9G G42U,0.364
2,C10G A71C,1.2
3,C10U G32A,0.176
4,C10U G32U,0.164
5,C10U C16A,0.887
6,C10U C16G,0.564
7,U9G G32U,0.123
8,C10U U14G,0.698
9,C10U U14C,0.671
10,A11G G34A,1.18
11,C10G G34U,1.06
12,A11C A49G,0.629
13,A11C A49U,0.197
14,A11C G29C,0.137
15,A11C G29U,0.113
16,A11C G56U,0.0715
17,C10U C37U,0.39
18,C10G C16A,0.555
19,C10G C16U,0.735
20,C10A A71U,0.557
21,A11C G68A,0.248
22,A11C G68C,0.136
23,C10U G25A,0.429
24,C10G A30U,0.0991

row,Variant,self-cleavage
1,C10G A30G,0.143
2,C10G A30C,0.168
3,C10A G51A,0.695
4,C10A G69C,0.241
5,C10A G69A,0.317
6,A11C G42C,0.441
7,C10G A23U,0.656
8,C10A C65U,0.274
9,C10A G29U,0.0922
10,C10A G29C,0.16
11,A11C G19U,0.697
12,C10U G29C,0.159
13,C10U G29U,0.134
14,C10U C12U,0.652
15,A11C U20G,1.04
16,A11C U20A,0.774
17,C10U A71G,0.811
18,C10G G27C,0.147
19,C10G G27A,0.405
20,U9G G17U,0.847
21,U9G G17A,0.571
22,A11C U63A,0.201
23,A11G A45U,0.159
24,A11C G21C,0.732

row,Variant,self-cleavage
1,A11C G21A,0.605
2,C10U A64C,0.213
3,C10G G56A,0.156
4,A11G A39C,0.45
5,C10A A47U,0.177
6,C10U A49G,0.422
7,C10U A49C,0.143
8,U9G C18A,0.707
9,C10G G54C,0.193
10,C10A U33C,0.174
11,C10U C65A,0.642
12,C10U C65U,0.204
13,U9G G25A,0.153
14,A11C C38U,0.515
15,C10U C46U,0.152
16,C10A C38A,0.171
17,C10A C38G,0.196
18,C10U U60G,0.435
19,A11G G21A,0.764
20,A11G G21U,0.72
21,A11G C46U,0.203
22,C10A A61U,0.194
23,C10A A61C,0.18
24,C10U G19C,0.702

row,Variant,self-cleavage
1,C10U G19A,0.588
2,A11G G51C,0.784
3,C10G A24C,0.641
4,A11G G25U,0.569
5,A11G G25C,0.587
6,U9G C16G,0.431
7,A11G C16G,0.592
8,C10U G21A,0.937
9,C10U G21C,0.77
10,C10A G17A,0.622
11,C10A A43U,0.133
12,A11C G25U,0.548
13,C10U G69C,0.235
14,C10U A28U,0.357
15,C10A U53G,0.514
16,A11C A28U,0.603
17,U9G U14G,0.597
18,C10G A64C,0.169
19,C10G U58C,0.681
20,C10G A43G,0.175
21,C10G C37A,0.22
22,A11C U52C,1.06
23,U9G U63A,0.102
24,C10U A30C,0.146

row,Variant,self-cleavage
1,A11C A39G,0.275
2,A11C A39C,0.514
3,C10U G34C,1.02
4,A11G C12A,0.735
5,A11G C12U,0.778
6,U9G G56U,0.124
7,C10G A39U,0.273
8,C10U C66G,0.19
9,C10U C66U,0.43
10,A11C G34U,1.45
11,C10U U20A,0.774
12,C10G A22U,0.661
13,U9G G51A,0.626
14,C10G C65G,0.246
15,C10A G34C,0.942
16,U9G G54A,0.418
17,A11G C65U,0.227
18,A11G C65A,0.759
19,A11C U53A,0.919
20,C10G G51U,0.699
21,C10G G51A,0.755
22,C10U U67A,0.137
23,C10U U67G,0.311
24,C10G G32U,0.15

row,Variant,self-cleavage
1,A11C U33G,0.0703
2,A11C U33A,0.222
3,A11C U33C,0.252
4,C10A C48A,0.102
5,C10A C48G,0.157
6,C10A C48U,0.0572
7,A11C A43U,0.163
8,C10G C46A,0.106
9,U9G G29A,0.0566
10,U9G G29C,0.129
11,U9G G29U,0.1
12,C10A G56C,0.11
13,C10A G56A,0.133
14,C10G C48A,0.151
15,C10G C50A,0.198
16,C10G U60A,0.608
17,A11C U62G,0.199
18,A11G A26C,0.624
19,U9G C65G,0.207
20,C10A G13U,0.425
21,C10U G68A,0.217
22,C10A U58C,0.858
23,C10G A44G,0.108
